Patent US20210388087A1 (Chugai, published 2021)

T1: Human CD3eg linker (human)
T1 construct: Single chain: epsilon and gamma subunits of human CD3 joined by a 29-mer linker, Flag-tag at the C-terminus; also called recombinant human CD3
T1 chain: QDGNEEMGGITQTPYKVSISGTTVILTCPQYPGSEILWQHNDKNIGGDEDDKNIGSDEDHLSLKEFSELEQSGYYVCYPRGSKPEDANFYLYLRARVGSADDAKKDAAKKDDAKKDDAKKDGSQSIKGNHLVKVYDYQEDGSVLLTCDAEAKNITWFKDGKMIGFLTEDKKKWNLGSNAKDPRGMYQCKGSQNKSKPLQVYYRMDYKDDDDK


Biological target: T1, Human CD3eg linker
Experiment: Biacore SPR, vs template H183/L072

Row | fold change of affinity | Binder
1 | 0 fold | H183/L072 VH Q50T (antibody, name in Kabat numbering, V domains shown) VH: QVQLVESGGGLVQPGRSLRLSCAASGFTFSNAWMHWVRQAPGKGLEWVATIKDKGNAYAAYYAPSVKGRFTISRDDSKNSIYLQMNSLKTEDTAVYYCHYVHYASASTVLPAFGVDAWGQGTTVTVSS VL: DIVMTQSPLSLPVTPGEPASISCQASQELVHMNRNTYLHWYQQKPGQAPRLLIYKVSNRFPGVPDRFSGSGSGTDFTLKISRVEAEDVGVYYCAQGTSVPFTFGQGTKLEIK
2 | 0 fold | H183/L072 VH Q50V (antibody, name in Kabat numbering, V domains shown) VH: QVQLVESGGGLVQPGRSLRLSCAASGFTFSNAWMHWVRQAPGKGLEWVAVIKDKGNAYAAYYAPSVKGRFTISRDDSKNSIYLQMNSLKTEDTAVYYCHYVHYASASTVLPAFGVDAWGQGTTVTVSS VL: DIVMTQSPLSLPVTPGEPASISCQASQELVHMNRNTYLHWYQQKPGQAPRLLIYKVSNRFPGVPDRFSGSGSGTDFTLKISRVEAEDVGVYYCAQGTSVPFTFGQGTKLEIK
3 | 0 fold | H183/L072 VH Q50W (antibody, name in Kabat numbering, V domains shown) VH: QVQLVESGGGLVQPGRSLRLSCAASGFTFSNAWMHWVRQAPGKGLEWVAWIKDKGNAYAAYYAPSVKGRFTISRDDSKNSIYLQMNSLKTEDTAVYYCHYVHYASASTVLPAFGVDAWGQGTTVTVSS VL: DIVMTQSPLSLPVTPGEPASISCQASQELVHMNRNTYLHWYQQKPGQAPRLLIYKVSNRFPGVPDRFSGSGSGTDFTLKISRVEAEDVGVYYCAQGTSVPFTFGQGTKLEIK
4 | 0 fold | H183/L072 VH Q50S (antibody, name in Kabat numbering, V domains shown) VH: QVQLVESGGGLVQPGRSLRLSCAASGFTFSNAWMHWVRQAPGKGLEWVASIKDKGNAYAAYYAPSVKGRFTISRDDSKNSIYLQMNSLKTEDTAVYYCHYVHYASASTVLPAFGVDAWGQGTTVTVSS VL: DIVMTQSPLSLPVTPGEPASISCQASQELVHMNRNTYLHWYQQKPGQAPRLLIYKVSNRFPGVPDRFSGSGSGTDFTLKISRVEAEDVGVYYCAQGTSVPFTFGQGTKLEIK

Continued, binder first:

Row | Binder | fold change of affinity
5 | H183/L072 VH Q50M (antibody, name in Kabat numbering, V domains shown) VH: QVQLVESGGGLVQPGRSLRLSCAASGFTFSNAWMHWVRQAPGKGLEWVAMIKDKGNAYAAYYAPSVKGRFTISRDDSKNSIYLQMNSLKTEDTAVYYCHYVHYASASTVLPAFGVDAWGQGTTVTVSS VL: DIVMTQSPLSLPVTPGEPASISCQASQELVHMNRNTYLHWYQQKPGQAPRLLIYKVSNRFPGVPDRFSGSGSGTDFTLKISRVEAEDVGVYYCAQGTSVPFTFGQGTKLEIK | 0.1 fold
6 | H183/L072 VH Q50P (antibody, name in Kabat numbering, V domains shown) VH: QVQLVESGGGLVQPGRSLRLSCAASGFTFSNAWMHWVRQAPGKGLEWVAPIKDKGNAYAAYYAPSVKGRFTISRDDSKNSIYLQMNSLKTEDTAVYYCHYVHYASASTVLPAFGVDAWGQGTTVTVSS VL: DIVMTQSPLSLPVTPGEPASISCQASQELVHMNRNTYLHWYQQKPGQAPRLLIYKVSNRFPGVPDRFSGSGSGTDFTLKISRVEAEDVGVYYCAQGTSVPFTFGQGTKLEIK | 0 fold
7 | H183/L072 VH Q50R (antibody, name in Kabat numbering, V domains shown) VH: QVQLVESGGGLVQPGRSLRLSCAASGFTFSNAWMHWVRQAPGKGLEWVARIKDKGNAYAAYYAPSVKGRFTISRDDSKNSIYLQMNSLKTEDTAVYYCHYVHYASASTVLPAFGVDAWGQGTTVTVSS VL: DIVMTQSPLSLPVTPGEPASISCQASQELVHMNRNTYLHWYQQKPGQAPRLLIYKVSNRFPGVPDRFSGSGSGTDFTLKISRVEAEDVGVYYCAQGTSVPFTFGQGTKLEIK | 0 fold
8 | H183/L072 VH Q50N (antibody, name in Kabat numbering, V domains shown) VH: QVQLVESGGGLVQPGRSLRLSCAASGFTFSNAWMHWVRQAPGKGLEWVANIKDKGNAYAAYYAPSVKGRFTISRDDSKNSIYLQMNSLKTEDTAVYYCHYVHYASASTVLPAFGVDAWGQGTTVTVSS VL: DIVMTQSPLSLPVTPGEPASISCQASQELVHMNRNTYLHWYQQKPGQAPRLLIYKVSNRFPGVPDRFSGSGSGTDFTLKISRVEAEDVGVYYCAQGTSVPFTFGQGTKLEIK | 0 fold
